The data set in a line: yeast display, Sf9 membrane polyspecificity reagent, FACS + sequencing; frameworks hold sequencing errors. The method in brief:
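Galactose induction of a Saccharomyces cerevisiae BJ5465 synthetic nanobody display library ran 36–48 hours. The cells were then stained for 1 hour at 4 °C with 10% biotinylated, detergent-solubilized Sf9 membrane reagent, pulled down on streptavidin microbeads and FACS-sorted into low and high (top ~1%) gates on expression and reagent-binding fluorescence. Labels for polyreactivity follow the gate of origin.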
“QVQLVESGGGLVQAGVSLRLSCAASGGTFLVSAKGWYRQAPGKERQMVAAISVSGGSTYYADSVKGRFTISRDNAKNTVYLQMNSLKPEDTAVYYCAATYSHPFHTYVLRFFAYYYWGQGTQVTVSS”: the “polyreactivity (PSR sort gate)” value is listed as “high polyreactivity”.
Under “QVQLVESGGGLVQAGGSLRKTCAASVRIFHYYAMGWYRQAPGKERELVAAINKSGGRTYYADSVKGRFTISRDNAKNTFYLQMNSLKPEDTAVYYCAAQDGYLGQGTQVTVSS” stands “high polyreactivity”; under “QVQLVESGGGLVQAGGSLRLSCAASGSTFDSNAMGWYRQAPGKERELVAPISGSASRTYYADSVKGRFTISRDNAKNTVYLQMNSLKPEDTAVYYCAAVRYHMYYWGQGTQVTVSS”, “high polyreactivity”; under “QVQLVESGGGLVQAGGSLRLSCAASGSILQDYAMGWYRQAPGKERELVAAISNSGDSTYYADSVKGRFTISRDNAKNTVYLQMNSLKPEDTAVYYCNAAVYPYALYSGGLDYDYWGQGTQVTVSS”, “low polyreactivity”.
The same measure for “QVQLVESGGGLDQAGGSLRLSCAASGFIYSSYGMGWYRQAPGKERELDAAISRSGGSTYYADSVKGRFTISRDNAKNTVYLEMNSLKPEDTAVYYCATAYSWRNADWFAYSYDYWGQGTQVTVSS”: “low polyreactivity”.
Regarding “QVQLVESGGGLVQAGGSLRLSCAASGSIFNRYAMGWYRQAPGKERELVAAISTHTGTTYYADSVKGRFTISRDNAKNTVYLQMNSLKPEDTAVYYCAKRSRYGYGKSYDYWGQGTQVTVSS”, the “polyreactivity (PSR sort gate)” value was “high polyreactivity”.
On to “QVQLVESGGRIFQAGGSLRLSCAASGLIFPYYVMGWYRQAPGKERELVADITWSGGRTYYADSVKGRFTISRDNAKNTVYLQMNSLKPEDTSVYYCKAETGGVYDNYYYVGEYYFWGQGTQVTVSS”, for which the “polyreactivity (PSR sort gate)” value is “low polyreactivity”.
Under “QVQLVESGGDLVQAGGSLRLSCAASGSIFYINAMGWYRQAPGKERELVASISYSGTSTYYADSVKGRFTISRDNAKNTVYLQMNSLKPEDTAVYYCNAEDTPGAGDGYWGQGTQVTVSS” stands “low polyreactivity”; under “QVQLVESGGGLVQAGGSLRLICAASGLTFKQYVMGWYRQAPGKERELVAAIHNGTSTYYADSVKGRFTISRDNAKNTVYLQMNSLKPEDTAVYYCAADGLGFNTYDYWGQGTQVTVSS”, “low polyreactivity”; under “QVQLVESGGGLVQAGGSLRLSCAASGRTFKYYAMGWYRQAPGKERELVAAISRSGGSTYYADSVKGRFTISRDNAKNTVYLQMNSLKPEDTAVYYCNAEYLWIRHIAEDYWGQGTQVTVSS”, “low polyreactivity”.
“QVLLVESGGGLVQAGGSLRLSCAASGRTLPPNAMGWYRQAPGKERELGAGITWSGGSTYSADSVKGRFTISRDNAKNTVYLQMNSLKPEDTAVYYCAASRSFPGYGLYYYWGQGTQVTVSS”: the “polyreactivity (PSR sort gate)” value is “low polyreactivity”.
The same measure for “QVQLVESGGGLVQAGGSLRLICAASGSTFRYYAMGWYRQAPGKEREFVAAISLRAGSTYYADSVKGRFTISRDNAKNTVYLQMNSLKPEDTAVYYCAARRASYGTRRYDYWGQGTQVTVSS”: “high polyreactivity”; for “QVQLVESGGGLVQAGGSLRLSCAASGRIFVSYTMGWYRQAPGKERELVAAIRGTGSTYYADSVKGRFTISRDNAKNTVYLQMNSLKPEDTAVYYCNADYLRWDIWYWHGYDYWGQGTQVTVSS”: “high polyreactivity”.
Under “QVQLVESVGGLVQAGGSLRLSCDASGRIFRRYAMGWYRQAPGKERELVAAISSSGDSTYYADSVKGRFTISRDNAKNTVYLQMNSLKPEDTAVYYCAAVTRRYVLSTFYYWGQGTQVTVSS” stands “high polyreactivity”.
The same measure for “QVQLVESGGGLVQAGGSLRFSCAASGRNFVVYAMGWYRQAPRKEREFVAAITWSGDSTTYYADSVKGRFTISRDNAMTTFYLQLKSLKPDDTAVYYCASEGDGANGGAYDYWGQGTQVNVSS”: “low polyreactivity”; for “QVQLVESGGGLVQAGGSLRLSCAASGRTFPYYDIGWYRKAPGKERELVAAITSGGTTNYADSVKGRFTISRDNAKNTVYLQMNSLKPEDTAVYNCAAGSPWYYFSSYGYWGQGTQVTVSS”: “low polyreactivity”; for “QVQLEESGGGLVQAGGSLRLSCAASGSIFYVYAIGSYRQAPRKERELVAAISQSGGNTYYADSVKGRFTISRDNAKNTVYLQMNSLKPEDTAVYYCNAVYYYYAGNYWGQGTQVTVSS”: “high polyreactivity”.
Consider “QVLLQESGGGLVQEGGSLRLTCAASGNIFSAGGMAWYRQATVNERELVAGIGTGTSTNYADSVKGRFTISRDNAKNTVYLQMNSLKPEDTAVYYCAAAYYSGLSHWYWGQCTQVTVSS”, for which the “polyreactivity (PSR sort gate)” value is “low polyreactivity”.
Consider “QVQLVESVGGLVQAGGSLRLSCASSGSTFGFNAIGWYRKAPVKERELVAANTFSGGTTYYADSVKGRFTISRDNAKNTVYLQMNSLKPEDTAGYYCNAEWWYQYTGPFSPWGEDYWGQGTQVTVSS”, for which the “polyreactivity (PSR sort gate)” value is reported as “low polyreactivity”.
As to “QVQIVESGGGLVQAGRSLRLSCAASGLIFRAYAMGWYRQAPGKDRELVAAITRSGGRTYYADSVKGRFTISRDNAKNTVYLQMNTLKPVDTAVYYSAAEYGNTYSSYTYDYWGQGTQVNVSS”, the “polyreactivity (PSR sort gate)” value is given as “high polyreactivity”.
For “QVQLVESGGGLVQAGGSLRLSCAASGLTFEKYAMGWYRQAPGKERELVAAISQDGGSTYYADSVKGRFTISRDNAKNTVYLQMNSLKPEDTAVYYCAAEDPDSWLPWHLYDYWGQGTQVTVSS”, the “polyreactivity (PSR sort gate)” value is recorded as “low polyreactivity”.
Under “QDQLVESGGGLVQAGGSLRLSCAASGFTFYLYTMGSYRQAPGKERELVATITSDGGTNYADSVKGRFTISRDNAKNTVYLQMNSLKPEDTAVYFCNAASRRGSRKQAKYDYWGQGTQVTVSS” stands “low polyreactivity”.
As to “QVQHVESGGGLVQAGGSLRLSCAASGGIFPTYVMGWYRQAPGKERELVAAIDRNGTSTTYADSVMGRFTISRDNAKNTVYLQMNSLKPEDTAVYYCAAGYNDQTTAYDYWGQGTQVTVSS”, the “polyreactivity (PSR sort gate)” value is listed as “low polyreactivity”.
As to “QVHLVESGGGLVQAGGSLRLTCAASGFTFHQYAMGWYRQAPGKERELVAAISQSGDSTYYADSVKGRFTISRDNSKNTVYLQMNSLKQEYTAVYYFNADNDGVVWSDPFDFDYWGQGTQVTVSS”, the “polyreactivity (PSR sort gate)” value is recorded as “low polyreactivity”.
Under “QVQLVESGGGLVQAGGSLRLSCAASGSTFTYNAMGWYRQAPGKERELVAVIRPGGNTNDADSVKGRFTISRDNAKNTVYLQMNSLKPEDTAVYYCAKYFGNYSIYDYWGQGTQVTVSS” stands “low polyreactivity”; under “QVQLVESGGGLVQAGGSLRLSCAASGRTFLLNAMGWYRQAPGKERELVATITYSGGITYYADSVKGRFTISRDNAKNTVYLQMNSLKPEDTAVYYCSTSGPQYYSRNFDYWGQGTQVTVSS”, “low polyreactivity”; under “QVQLVESGGGLVQAGGSLRLSCAPSGSIVNRYALGWYRQAPGKEREFVAAITRRGGYTYYADSVKGRFTISRDNAKNSVYLPLNSLKPEDTAVYYCAAPFYYPAGLLYYENNYWRQGTQVTVSS”, “high polyreactivity”.
Take “QVQLVESGGGLFQAGGSLRLSCAASGSILTHYAMGWYRQAPGKERELVAGNTSGGTTNYADSVKGRFTISRDNAKNSVYLQMNSLKPEDTAVYYCNADVWICQRFETGYDFDYWGQGTQVTVSS”: the “polyreactivity (PSR sort gate)” value is “low polyreactivity”.
The same measure for “QVQLVESGGGLVQAGGSLRLSCAASGRIFVGNTMGWYRQAPGKDRELVAAISWRGRTSYADSVKGRFTISRDNAKNTVYLQMNSLKPEDTAVYYCNAEHAGASRYYYIANWMDYWGQGTQVTVSS”: “low polyreactivity”; for “QVQLVESGGGLVQAGGSLRLICAAYGSTFKQYAMGWYRPAPGKERELVAAITRGGRTYYADSVKGRFTISRDNAKNTVYLQMNSLKPEDTAVYYCNAQSWRRYGHFYYWGQGTQVTVSS”: “high polyreactivity”; for “QVQLVESGGGLVQAGGSLRLSCAASGSIFGSNAMGWYIQAPGKERELVAAITWSDGSTYYADSVKGRFTISRDNAKNTVYLQMNSLKPEDTAVYYCAADSWWGIYYSGYDYWGQGTQVTVSS”: “low polyreactivity”.
Under “QVQLVESGGGLVQAGGSLRLSCAASGSIFGYNAMGWYRQAPGKERELVAAISGGGGTYYADSVKGRFTISRDNAKNTVYLQMNSLKPEDTAVYYCATDRGHKWLFYGTYYRYEYWGQGTQVTVSS” stands “low polyreactivity”.
Under “QVQLVESGGGLVHAGGSLRLSCAASGSIFDYYAMGWYRQAPGKERELVAAISTSTSSTYYADSVKGRFTISRDNAKNTVCLQMNSLKPEDTAVYYCAAEGESQPESPGYDYWGQGTQVTVSS” stands “low polyreactivity”; under “QVQLVESGGGLVQAGGSLRLSCAASGRTFGGYTMGWYRQAPGKERALVAAIRWSGGRTYYADSVKGRFTISRDNAKNTVYLQMNSLKPEDTAVYYCNARYVFPYYWGQGTQVTVSS”, “high polyreactivity”.
In the case of “QVQLVESGGGLVQAGGSLRLSCAASGTIFGYYAMGWDREAPGKERELVAAITVSGSRTYYADSVKGRFTISRDKAKNTVYLQMNCLKPEATAVYYCAARYVSRYWAGRYPTRQRDSWGQGTQVTVSS”, the “polyreactivity (PSR sort gate)” value was “high polyreactivity”.
Under “QFQLVESGGGLVQAGGSLRLSYAASGRTFSSYAMGWYRQAPGKERELVAAITKRGGNTYYADSVKGRFTISRDNAKNTVYLQMNSLKPEDTAVYYCAAGWERFRNYNYWGQGTQVTVSS” stands “high polyreactivity”.
The same measure for “QVQLVESGGGLVQAGGRLRLSCPASGGTFGYNAMGWYRQAPGKERELVAAIRNGGSTYFADSVKGRFTISRDNAKNTVYLQMNSLKPEESAVYYCAAGPRGTGKYYWGQGTQVTVSS”: “high polyreactivity”; for “KVQLVESGGCLVQAGGSLSLSCAASGSIFAVYAMGWYRQAPGKERELVAAITLSGGSTYAYSVKGRFTISRDNAKNTFYLQMKSLKPEDTAVYYCNAVSANYDYVDYEYWGQGTQVNVSS”: “low polyreactivity”; for “QVQLVESGGGLVQAGGSLRLSCASSGSIFTCYTMGWYRQAPGKEMELVAAISQTGGRTYYADSVKVRFTISRDNAKNTVYLQMNSLKAEDTAVYYCAARSKRLAHDYWGQGTQVTVSS”: “high polyreactivity”.
Turning to “QVQLVESGGGLVQAGGSLRLSCAASGRILYYYTMGWYRQAPGKEREFVAAISSRGGSTYADSVKGRFTISRDNAKNTVYLQMNSLKPEDTAVFYCNARLKPRWGGRYDYWGQGTQVTVSS”, the “polyreactivity (PSR sort gate)” value is given as “high polyreactivity”.

Source of the values: the nanobody polyreactivity screen of Harvey et al. (2022).
